According to publication PMC3902943:

B1: S1m aptamer (60 nt) (structured_RNA)
RNA: AUGCGGCCGCCGACCAGAAUCAUGCAAGUGCGUAAGAUAGUCGCGGGUCGGCGGCCGCAU

Molecular target: streptavidin (SA) (UniProt P22629 25-183)
Experiment: EMSA

Sequence of streptavidin (SA) (P22629 25-183): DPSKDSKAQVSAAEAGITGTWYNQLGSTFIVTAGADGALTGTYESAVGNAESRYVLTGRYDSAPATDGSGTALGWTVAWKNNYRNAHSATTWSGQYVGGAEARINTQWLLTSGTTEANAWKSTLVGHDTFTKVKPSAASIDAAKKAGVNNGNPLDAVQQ

Binder	Kd [nM]
B1	29
ACCGACCAGAAUCAUGCAAGUGCGUAAGAUAGUCGCGGGCCGGG (structured_RNA) [S1 aptamer (44 nt)]	59
